77 sequences from the supplement of paper PMC7877785 can be followed below.

± gives the uncertainty stated by the source.

This data set in a line: self-splicing fitness, log relative to wild type (ln ratio); higher = more splicing; Tetrahymena group I intron in knt gene, E. coli kanamycin selection, DiMSum; sequences stand for … in CUCUCU…GGAGGGAAAAGUUAUCAGGCAUGCACCUGGUAGCUAGUCUUUAAACCAAUAGAUUGCAUCGGUUUAAAAGGCAAGACCGUCAAAUUGCGGGAAAGGGGUCAACAGCCGUUCAGUACCAAGUCUCAGGGGAAACUUUGAGAUGGCCUUGCAAAGGGUAUGGUAAUAAGCUGACGGACAUGGUCCUAACCACGCAGCCAAGUCCUAAGUCAACAGAUCUUCUGUUGAUAUGGAUGCAGUUCACAGACUAAAUGUCGGUCGGGGAAGAUGUAUUCUUCUCAUAAGAUAUAGUCGGACCUCUCCUUAAUGGGAGCUAGCGGAUGAAGUGAUGCAACACUGGAGCCGCUGGGAACUAAUUUGUAUGCGAAAGUAUAUUGAUUAGUUUUGGAGUACUCGUGGUCG
Put shortly:
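Fitness was computed with DiMSum as the error-weighted combination of replicate fold changes, kanamycin versus none, each normalised to wild type. The library randomised all eight intron nucleotides of the P1ex region, with the intron placed in the knt kanamycin-resistance gene on pET-22b(+) in E. coli BL21(DE3). Six replicate transformations were grown overnight at 37°C or 30°C on LB agar with or without 25 μg/mL kanamycin, plus 100 μg/mL carbenicillin, 50 μM IPTG and 0.2% rhamnose. Pooled colonies were amplicon-sequenced on an Illumina HiSeq 2500.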

Regarding UAGUAGCAAUAUUACGAAUU, the “self-splicing fitness (ln)” value reads like this: (30 °C) -4.36 ± 0.36; (37 °C) -2.27 ± 0.27. In the same order, the values of CAGUAGCAAUAUUACGUACU are -1.78 ± 0.12 and -1.3 ± 0.1.

Take UUUAAGCAAUAUUACGGGAA: the “self-splicing fitness (ln)” value (30 °C) was -1.63 ± 0.094 and the “self-splicing fitness (ln)” value (37 °C) was -0.806 ± 0.095. In the same order, the values of GCGAAGCAAUAUUACGUUCA are -1.03 ± 0.13 and -0.809 ± 0.16. For CUGCAGCAAUAUUACGGUUG, the “self-splicing fitness (ln)” value is, setting by setting: (30 °C) -1.02 ± 0.13; (37 °C) -1.83 ± 0.19. The corresponding values for GGAUAGCAAUAUUACGGACC are -0.822 ± 0.22 and -0.154 ± 0.25.

Consider CGUAAGCAAUAUUACGGUAA, for which the “self-splicing fitness (ln)” value is -3.06 ± 0.28 (30 °C) and -1.36 ± 0.17 (37 °C). As to GACAAGCAAUAUUACGCUAG, the “self-splicing fitness (ln)” value reads like this: (30 °C) -2.28 ± 0.081; (37 °C) -1.36 ± 0.089. Regarding CCUCAGCAAUAUUACGCAUG, the “self-splicing fitness (ln)” value is, setting by setting: (30 °C) -1.83 ± 0.092; (37 °C) -0.467 ± 0.086. In the same order, the values of AUGCAGCAAUAUUACGGGCU are -2.25 ± 0.078 and -1.07 ± 0.1. The corresponding values for CGAAAGCAAUAUUACGGCAA are -1.82 ± 0.11 and -1.03 ± 0.1. The corresponding values for UGCCAGCAAUAUUACGCAAG are -3.07 ± 0.24 and -3.65 ± 0.46. For the sequence ACGGAGCAAUAUUACGUAGG, the “self-splicing fitness (ln)” value (30 °C) was -3.48 ± 0.26.

As to AAUGAGCAAUAUUACGAGAA, the “self-splicing fitness (ln)” value is -2.17 ± 0.23 (30 °C) and -2.03 ± 0.32 (37 °C). Consider AGACAGCAAUAUUACGUAGU, for which the “self-splicing fitness (ln)” value was -3.27 ± 0.1 (30 °C) and -1.88 ± 0.1 (37 °C).

For the sequence ACAAAGCAAUAUUACGUCCU, the “self-splicing fitness (ln)” value was -0.488 ± 0.07 (30 °C) and -0.399 ± 0.08 (37 °C).

On to AUCAAGCAAUAUUACGCUGG, for which the “self-splicing fitness (ln)” value is, setting by setting: (30 °C) -2.36 ± 0.096; (37 °C) -0.84 ± 0.12. The corresponding values for AACUAGCAAUAUUACGUACU are -0.0487 ± 0.053 and 0.151 ± 0.073. Consider UACAAGCAAUAUUACGGUAU, for which the “self-splicing fitness (ln)” value is, setting by setting: (30 °C) -3.83 ± 0.21; (37 °C) -2.54 ± 0.16.

For UUACAGCAAUAUUACGUGUA, the “self-splicing fitness (ln)” value is, setting by setting: (30 °C) -2.48 ± 0.084; (37 °C) -1.48 ± 0.081. GUAAAGCAAUAUUACGGUUC: the “self-splicing fitness (ln)” value was -0.687 ± 0.097 (30 °C) and -0.679 ± 0.13 (37 °C).

AGCGAGCAAUAUUACGCUGC: the “self-splicing fitness (ln)” value was -1.51 ± 0.39 (30 °C) and -2.23 ± 0.42 (37 °C). For AUUGAGCAAUAUUACGCUUG, the “self-splicing fitness (ln)” value by setting is: (30 °C) -2.91 ± 0.18; (37 °C) -0.989 ± 0.18.

As to UGAGAGCAAUAUUACGUUGU, the “self-splicing fitness (ln)” value reads like this: (30 °C) -3.89 ± 0.19; (37 °C) -2.91 ± 0.23.

Regarding AUCUAGCAAUAUUACGGUCU, the “self-splicing fitness (ln)” value by setting is: (30 °C) -0.756 ± 0.078; (37 °C) -0.908 ± 0.098. In the case of ACUGAGCAAUAUUACGACGA, the “self-splicing fitness (ln)” value was -1.3 ± 0.13 (30 °C) and -0.569 ± 0.12 (37 °C). The corresponding values for CGUCAGCAAUAUUACGGAUC are -1.12 ± 0.051 and -0.0121 ± 0.069. For CACUAGCAAUAUUACGCUAU, the “self-splicing fitness (ln)” value (30 °C) was -3.92 ± 0.3 and the “self-splicing fitness (ln)” value (37 °C) was -2.38 ± 0.23. As for UGACAGCAAUAUUACGGGGU, the “self-splicing fitness (ln)” value was -4.41 ± 0.31 (30 °C) and -2.38 ± 0.23 (37 °C). The corresponding values for GGGCAGCAAUAUUACGGAAG are -3.03 ± 0.23 and -1.02 ± 0.17. As to GCGAAGCAAUAUUACGUCUC, the “self-splicing fitness (ln)” value (30 °C) is -2.04 ± 0.12 and the “self-splicing fitness (ln)” value (37 °C) was -1.41 ± 0.14. On to AAUUAGCAAUAUUACGAAUA, for which the “self-splicing fitness (ln)” value is -1.67 ± 0.41 (30 °C) and 0.49 ± 0.3 (37 °C). Turning to ACCUAGCAAUAUUACGAAGU, the “self-splicing fitness (ln)” value is, setting by setting: (30 °C) -3.53 ± 0.19; (37 °C) -2.72 ± 0.19.

Consider CAUAAGCAAUAUUACGUCAU, for which the “self-splicing fitness (ln)” value runs as follows: (30 °C) -3.67 ± 0.19; (37 °C) -2.19 ± 0.19. Regarding GACCAGCAAUAUUACGCUCC, the “self-splicing fitness (ln)” value (30 °C) is -2.32 ± 0.22 and the “self-splicing fitness (ln)” value (37 °C) is -1.83 ± 0.21.

For the sequence GUGUAGCAAUAUUACGUGGA, the “self-splicing fitness (ln)” value runs as follows: (30 °C) -3.41 ± 0.3; (37 °C) -2.04 ± 0.23. Regarding GUGUAGCAAUAUUACGACAG, the “self-splicing fitness (ln)” value (30 °C) was -2.07 ± 0.42. Take GACCAGCAAUAUUACGGUCC: the “self-splicing fitness (ln)” value (30 °C) was -2.95 ± 0.17. Consider GCGGAGCAAUAUUACGGAAU, for which the “self-splicing fitness (ln)” value was -2.29 ± 0.21 (30 °C) and -3.42 ± 0.35 (37 °C). Turning to AUCCAGCAAUAUUACGCCGU, the “self-splicing fitness (ln)” value runs as follows: (30 °C) -0.864 ± 0.096; (37 °C) -0.133 ± 0.12. The corresponding values for AAUGAGCAAUAUUACGACAG are -3.71 ± 0.29 and -1.85 ± 0.26. Turning to UCCGAGCAAUAUUACGCGAG, the “self-splicing fitness (ln)” value (37 °C) is -1.2 ± 0.24. For AAUAAGCAAUAUUACGCUGG, the “self-splicing fitness (ln)” value (30 °C) is -1.81 ± 0.17 and the “self-splicing fitness (ln)” value (37 °C) was -1.5 ± 0.21.

Consider GAGGAGCAAUAUUACGAAGA, for which the “self-splicing fitness (ln)” value is -2.19 ± 0.24 (30 °C) and -1.95 ± 0.32 (37 °C). The corresponding values for AUCGAGCAAUAUUACGUGUG are -3.04 ± 0.13 and -2.92 ± 0.18. The corresponding values for GAUUAGCAAUAUUACGGCAA are -0.324 ± 0.15 and -0.0501 ± 0.18. The corresponding values for GGUAAGCAAUAUUACGUACA are -0.648 ± 0.1 and 0.294 ± 0.14. For GGGAAGCAAUAUUACGUAAG, the “self-splicing fitness (ln)” value runs as follows: (30 °C) -1.09 ± 0.086; (37 °C) -1.14 ± 0.13. For the sequence UUUGAGCAAUAUUACGCCUU, the “self-splicing fitness (ln)” value (37 °C) was -2.2 ± 0.45. In the case of UUUAAGCAAUAUUACGUUGC, the “self-splicing fitness (ln)” value reads like this: (30 °C) -3.26 ± 0.43; (37 °C) -2.97 ± 0.38. Take AAUGAGCAAUAUUACGUCGG: the “self-splicing fitness (ln)” value runs as follows: (30 °C) -3.31 ± 0.22; (37 °C) -2.44 ± 0.4. Consider GAAAAGCAAUAUUACGUAUU, for which the “self-splicing fitness (ln)” value is -3.24 ± 0.13 (30 °C) and -2.16 ± 0.11 (37 °C). The corresponding values for CUGUAGCAAUAUUACGCUAG are -3.71 ± 0.21 and -2.36 ± 0.23. The corresponding values for GACUAGCAAUAUUACGAAUG are -2.65 ± 0.18 and -1.93 ± 0.17. In the same order, the values of CACCAGCAAUAUUACGCGGG are -3.44 ± 0.16 and -2.4 ± 0.15. For AAAAAGCAAUAUUACGUCUG, the “self-splicing fitness (ln)” value reads like this: (30 °C) -0.785 ± 0.058; (37 °C) -0.319 ± 0.072. As to CAAAAGCAAUAUUACGCACG, the “self-splicing fitness (ln)” value is, setting by setting: (30 °C) -1.5 ± 0.098; (37 °C) -0.59 ± 0.12. For the sequence AGUCAGCAAUAUUACGCUAU, the “self-splicing fitness (ln)” value runs as follows: (30 °C) -0.623 ± 0.1; (37 °C) -0.137 ± 0.11. GGAUAGCAAUAUUACGCACG: the “self-splicing fitness (ln)” value (30 °C) was -1.12 ± 0.16 and the “self-splicing fitness (ln)” value (37 °C) is -0.963 ± 0.15.

Regarding CCGCAGCAAUAUUACGCUUC, the “self-splicing fitness (ln)” value (30 °C) was -4.17 ± 0.46.

For the sequence AAACAGCAAUAUUACGACAC, the “self-splicing fitness (ln)” value by setting is: (30 °C) -1.95 ± 0.15; (37 °C) -0.33 ± 0.15.

As for CUUUAGCAAUAUUACGCAAA, the “self-splicing fitness (ln)” value (30 °C) is -2.51 ± 0.21 and the “self-splicing fitness (ln)” value (37 °C) was -1.34 ± 0.2.

In the case of AAAGAGCAAUAUUACGCUCU, where the note is “37 °C”, the “self-splicing fitness (ln)” value was -2.45 ± 0.49. UAUGAGCAAUAUUACGAAAU: the “self-splicing fitness (ln)” value (30 °C) was -3.68 ± 0.37. On to AUUUAGCAAUAUUACGACCG, for which the “self-splicing fitness (ln)” value by setting is: (30 °C) -1.54 ± 0.24; (37 °C) -0.522 ± 0.23. In the same order, the values of CCAUAGCAAUAUUACGGAAC are -3.26 ± 0.24 and -1.55 ± 0.27. For GGAAAGCAAUAUUACGCAGA, the “self-splicing fitness (ln)” value runs as follows: (30 °C) -3.75 ± 0.28; (37 °C) -1.52 ± 0.18. Take GACUAGCAAUAUUACGCUGC: the “self-splicing fitness (ln)” value runs as follows: (30 °C) -3.53 ± 0.21; (37 °C) -2.85 ± 0.28.

Consider UCCGAGCAAUAUUACGGGAC, for which the “self-splicing fitness (ln)” value by setting is: (30 °C) -3.59 ± 0.18; (37 °C) -2.2 ± 0.15. For the sequence GACCAGCAAUAUUACGAGGC, the “self-splicing fitness (ln)” value reads like this: (30 °C) -3.02 ± 0.13; (37 °C) -0.778 ± 0.091. On to CGGAAGCAAUAUUACGGGGA, for which the “self-splicing fitness (ln)” value was -3.79 ± 0.26 (30 °C) and -2.65 ± 0.31 (37 °C). The corresponding values for UCCCAGCAAUAUUACGCUAU are -4.27 ± 0.21 and -1.31 ± 0.11. Consider UUCUAGCAAUAUUACGACCG, for which the “self-splicing fitness (ln)” value is -1.13 ± 0.26 (30 °C) and -1.07 ± 0.42 (37 °C). As for CCAAAGCAAUAUUACGAGCA, the “self-splicing fitness (ln)” value is -3.64 ± 0.23 (30 °C) and -3.23 ± 0.26 (37 °C).

Regarding ACCCAGCAAUAUUACGUGAA, the “self-splicing fitness (ln)” value is, setting by setting: (30 °C) -0.191 ± 0.041; (37 °C) 0.202 ± 0.063. In the same order, the values of UCAUAGCAAUAUUACGCACG are -2.05 ± 0.11 and -0.462 ± 0.13. The corresponding values for ACCAAGCAAUAUUACGGUUU are -3.14 ± 0.11 and -2.08 ± 0.1.
